Experimental data as given in patent US20230174652A1 (Regeneron, published 2023).
Each block holds one binder with its values, some of them ahead of it.

What was measured:
[1] = target: T1, Monkey CD22.mmH (EHH59463.1) (monkey (cyno)); experiment: SPR (Biacore), mAb captured by anti-human Fc, monkey CD22.mmH (EHH59463.1) injected, 25°C
T1 construct: also called REGN5281; mfCD22.mmH
T1 chain: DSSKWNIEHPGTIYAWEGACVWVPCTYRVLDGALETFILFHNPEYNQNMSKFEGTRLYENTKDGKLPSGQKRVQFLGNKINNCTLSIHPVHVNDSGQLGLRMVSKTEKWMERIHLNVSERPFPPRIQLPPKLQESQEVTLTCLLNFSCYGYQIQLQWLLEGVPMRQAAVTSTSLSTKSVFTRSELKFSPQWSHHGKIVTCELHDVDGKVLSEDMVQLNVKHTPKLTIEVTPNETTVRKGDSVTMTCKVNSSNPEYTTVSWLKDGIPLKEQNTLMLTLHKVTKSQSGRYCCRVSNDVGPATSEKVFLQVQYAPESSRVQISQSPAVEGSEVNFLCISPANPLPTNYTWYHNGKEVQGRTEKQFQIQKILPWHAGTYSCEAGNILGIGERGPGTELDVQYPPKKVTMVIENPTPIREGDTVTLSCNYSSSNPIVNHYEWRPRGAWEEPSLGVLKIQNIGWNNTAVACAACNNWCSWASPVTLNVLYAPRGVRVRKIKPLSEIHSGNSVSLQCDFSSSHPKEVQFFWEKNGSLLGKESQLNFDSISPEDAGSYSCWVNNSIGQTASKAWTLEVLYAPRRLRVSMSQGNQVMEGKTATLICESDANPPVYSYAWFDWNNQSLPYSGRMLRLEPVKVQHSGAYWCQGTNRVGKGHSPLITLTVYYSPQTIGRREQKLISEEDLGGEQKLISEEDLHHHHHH
Protocol: (§1) All of the binding kinetics experiments were performed at 25° C. Kinetic association (kₐ) and dissociation (kd) rate constants were determined by fitting the real-time sensorgrams to a 1:1 binding model using Scrubber 2.0c curve fitting software.

[2] = target: T2, hCD22.mmH (human, UniProt P20273 20-687); experiment: SPR (Biacore), mAb captured by anti-human Fc, hCD22.mmH injected, 25°C
T2 construct: also called REGN5140; recombinant human CD22
Protocol: as §1

[3] = target: T3, Monkey CD22.mmH (XP_005588899.1) (monkey (cyno)); experiment: SPR (Biacore), mAb captured by anti-human Fc, monkey CD22.mmH (XP_005588899.1) injected, 25°C
T3 construct: also called REGN5280; mfCD22.mmH
T3 chain: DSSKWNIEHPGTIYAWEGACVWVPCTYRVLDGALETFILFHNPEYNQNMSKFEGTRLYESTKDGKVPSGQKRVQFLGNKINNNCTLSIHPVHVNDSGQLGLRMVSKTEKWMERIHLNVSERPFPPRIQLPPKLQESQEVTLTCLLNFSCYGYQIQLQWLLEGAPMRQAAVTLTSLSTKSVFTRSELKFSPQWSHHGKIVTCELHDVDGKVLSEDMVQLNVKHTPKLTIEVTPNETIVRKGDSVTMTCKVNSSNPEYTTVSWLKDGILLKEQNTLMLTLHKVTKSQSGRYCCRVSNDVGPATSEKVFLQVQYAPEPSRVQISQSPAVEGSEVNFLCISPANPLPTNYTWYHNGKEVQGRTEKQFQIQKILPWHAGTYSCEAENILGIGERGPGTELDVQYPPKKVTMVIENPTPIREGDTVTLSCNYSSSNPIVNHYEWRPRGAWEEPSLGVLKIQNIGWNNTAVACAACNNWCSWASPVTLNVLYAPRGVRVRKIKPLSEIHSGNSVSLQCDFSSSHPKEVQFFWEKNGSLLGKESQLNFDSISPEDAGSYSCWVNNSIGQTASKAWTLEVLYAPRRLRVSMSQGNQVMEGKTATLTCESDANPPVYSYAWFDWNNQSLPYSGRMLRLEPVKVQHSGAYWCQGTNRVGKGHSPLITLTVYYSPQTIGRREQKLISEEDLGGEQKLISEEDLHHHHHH
Protocol: as §1

[4] = target: T4, hCD28.mmH (human); experiment: SPR (Biacore T-200), mAb captured by anti-human Fc, hCD28.mmH injected, 25°C
T4 construct: also called human CD28 with a C-terminal myc.myc hexahistidine tag
Protocol: as §1

[5] = target: T5, human CD20 on HEK293/hCD20 cells (human, UniProt P11836 1-297); experiment: flow cytometry on HEK293/hCD20 cells (negative for CD22 and CD28), geometric mean MFI of APC
T5 construct: whole, on cells; Used as a cell line negative for CD28 and CD22; also called negative cell line for CD28 and CD22
T5 sequence (looked up): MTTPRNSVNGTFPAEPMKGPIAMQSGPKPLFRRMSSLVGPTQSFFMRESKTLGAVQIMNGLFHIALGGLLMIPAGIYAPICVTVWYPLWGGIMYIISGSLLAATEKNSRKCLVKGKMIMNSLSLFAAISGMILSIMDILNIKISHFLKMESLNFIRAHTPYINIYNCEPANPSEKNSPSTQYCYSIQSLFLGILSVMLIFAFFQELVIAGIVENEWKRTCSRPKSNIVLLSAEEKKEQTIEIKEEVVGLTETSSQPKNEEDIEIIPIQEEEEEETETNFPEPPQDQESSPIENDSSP
Protocol: (§2) Briefly, human CD4+ T-cells, HEK293/hCD20, HEK293/hCD20/hCD22 and Raji/CD80 and CD86 negative cells were resuspended in staining buffer containing D-PBS+2% FBS. […] A negative control sample was included containing no antibody. Cells were washed once with cold staining buffer and incubated for 30-45 minutes with Allophycocyanin (APC) labeled anti-human secondary antibody. After incubation, cells were washed once with cold D-PBS buffer without FBS and incubated with LIVE/DEAD Fixable Green Dead Cell Stain (Invitrogen) according to manufacturer's instructions to discriminate between live and dead cells. Cells were then fixed in BD Cytofix Buffer according to manufacturer's instructions, washed, re-suspended in staining buffer, and analyzed by flow cytometry on an iQue Screener flow cytometer. For EC₅₀ determinations, geometric mean fluorescence intensity (MFI) values were analyzed using a four parameter logistic equation over a 9-point response curve using GraphPad Prism. Fold binding was calculated using the following equation:

[6] = target: T6, human CD22 on cells (human, UniProt P20273 20-847); experiment: flow cytometry on Nalm6 cells (human CD22)
T6 construct: whole, on cells; also called hCD22; CD22 on Nalm6 cells
Protocol: (§3) Flow cytometric analysis was utilized to determine binding of CD22×CD28 bispecific antibodies to human CD22 expressing Nalm6 cells and human CD28 expressing Jurkat cells and to cynomolgus monkey T (CD28+) and B (CD22+) cells. […] After incubation, the cells were washed twice with cold PBS containing 1% filtered FBS and a PE-conjugated anti-human secondary antibody was added to the cells and incubated for an additional 30 minutes. An additional phenotyping antibody cocktail (anti-CD2, anti-CD20, anti-CD16, anti-CD14) was added to wells with cynomolgus monkey PBCMs. Wells containing no antibody or secondary only were used as a control.
(§4) After incubation with secondary antibody, cells were washed, re-suspended in 200 μL cold PBS containing 1% filtered FBS and analyzed by flow cytometry on a BD LSR_Fortessa. Cynomolgus monkey T cells were identified as CD2+/CD16− and B cells as CD20+. EC₅₀ values for FACS binding were calculated using 4-parameter non-linear regression analysis in Prism software.

[7] = target: T6, human CD22 on cells; experiment: flow cytometry on HEK293/hCD20/hCD22 cells, geometric mean MFI of APC
Protocol: as §2

[8] = target: T7, human CD22 (human, UniProt P20273 20-847); experiment: flow cytometry on Raji/CD80 and CD86 negative cells
T7 construct: whole, on cells; also called hCD22
Protocol: as §2

[9] = target: T7, human CD22; experiment: flow cytometry on HEK293/hCD20/hCD22 cells
Protocol: as §2

[10] = target: T8, human CD28 on cells (human, UniProt P10747 19-220); experiment: flow cytometry on Jurkat cells (human CD28)
T8 construct: whole, on cells; also called CD28 on Jurkat cells; CD28 on human CD4+ T-cells
Protocol: as §3, §4

Kd [1]: 59.2 nM
t1/2 [1]: 29.6 min
90 nM hCD22.mmH Bind (RU) [2]: 61.5 RU
t½ [2]: 59.8 min
t1/2 [3]: 39.8 min
B1: H4sH33041P2 (antibody, V domains shown)
VH: EVQLVESGGGLVQPGGSLKLSCAASGFTFSGSDMHWVRQASGKGLEWVGRIRNQPNSYATAYAASVKGRFTISRDDSKNTAHLQMNSLKTEDTAVYFCTRQKQVVYNYHHYYGMDVWGQGTTVTVSS
VL: not shown
notes: Anti-CD22 bivalent parental monoclonal antibody; also called mAb33041P2; CD22 mAb

600 nM hCD28.mmH Bind (RU) [4]: 72.9 RU
Kd [4]: 341 nM
binding result [5]: no binding (tested: 10^-7 M)
90 nM hCD22.mmH Bind (RU) [2]: 100 RU
Kd [2]: 8.75 nM
t½ [2]: 7.8 min
EC50 [6]: 13 nM
B2: REGN5837 (bispecific antibody, V domains shown)
VH 1: QVQLQESGPGLVKPSETLSLTCTVSGGSISSYYWSWIRQPPGKGLEWIGYIYYSGITHYNPSLKSRVTISVDTSKIQFSLKLSSVTAADTAVYYCARWGVRRDYYYYGMDVWGQGTTVTVSS
VH 2: EVQLVQSGAEVKKPGESLKISCKGSGYNFATYWIAWVRQMPGKGLELMGIIYPGDSETTYNPSFQGQVTISADKSISNAYLQWSSLKASDTAMYYCARVGGYCSGTSCHNWFDPWGLGTLVTVSS
VL: not shown
notes: also called anti-CD22 x anti-CD28 bispecific antibody; CD22xCD28 mAb

600 nM hCD28.mmH Bind (RU) [4]: 88.4 RU
t1/2 [4]: 2.4 min
binding result [5]: no binding (tested: 10^-7 M)
binding result [7]: no binding (tested: 10^-7 M)
B3: REGN5705 (antibody, V domains shown)
VH: B2 VH 1
VL: not shown
notes: also called CD28 mAb; parental CD28 antibody

EC50 [8]: 14.9 nM
EC50 [9]: 11.4 nM
B4: REGN5838 (bispecific antibody, V domains shown)
VH 1: B2 VH 1
VH 2: B1 VH
VL: not shown
notes: also called anti-CD22 x anti-CD28 bispecific antibody; CD22xCD28

600 nM hCD28.mmH Bind (RU) [4]: 77 RU
Kd [4]: 404 nM
t1/2 [4]: 2.3 min
binding result [5]: no binding (tested: 10^-7 M)
90 nM hCD22.mmH Bind (RU) [2]: 26.7 RU
Kd [2]: 14.3 nM
t½ [2]: 38.2 min
EC50 [10]: 23 nM
EC50 [6]: 18 nM
B5: REGN5838 (bispecific antibody, V domains shown)
VH 1: B2 VH 1
VH 2: B1 VH
VL: not shown
notes: as for B2

Kd [1]: 35.6 nM
t1/2 [1]: 4 min
90 nM hCD22.mmH Bind (RU) [2]: 193 RU
t½ [2]: 7.8 min
t1/2 [3]: 4.3 min
B6: H4sH33037P2 (antibody, V domains shown)
VH: B2 VH 2
VL: not shown
notes: Anti-CD22 bivalent parental monoclonal antibody; also called mAb33037P2; CD22 mAb
